These results are taken from article PMC6543838, “Assessing Cofactor Usage in Pseudoclostridium thermosuccinogenes via Heterologous Expression of Central Metabolic Enzymes” (Frontiers in Microbiology, 2019).

Substrate in series [1]: Nc1ncnc2c1ncn2[C@@H]1O[C@H](COP(=O)(O)OP(=O)(O)OP(=O)(O)O)[C@@H](O)[C@H]1O
Put plainly: purified protein. The series is classed as biochemical, Clostridium thermosuccinogenes. To be noted: 5 mM D-galactose, 10 mM MgCl2, 100 mM KCl, MOPS pH 7.0, 55 °C.

Substrate in series [2]: Nc1nc2c(ncn2[C@@H]2O[C@H](COP(=O)(O)OP(=O)(O)OP(=O)(O)O)[C@@H](O)[C@H]2O)c(=O)[nH]1
The experiment in a line: purified protein. Conditions: 5 mM D-galactose, 10 mM MgCl2, 100 mM KCl, MOPS pH 7.0, 55 °C. Type of series: biochemical, Clostridium thermosuccinogenes.

B1: galactokinase (GalK), CDQ83_02810 (Clostridium thermosuccinogenes) (protein)
chain: DINQLKQKFIEIFGDNGEALRVFSSPGRVNLIGEHTDYNGGYVFPAALTLSSTVVARPRKDRQINLIATDLGIMVSASLDELEKHKDIKWGNYQLGVADELQKAGYKLVGCDMLFHDTVPLGSGLSSSAAIEVVTAITLVTLGNEAHGVNSGIDMVEMAKISQTAEHNYVGVNCGIMDQFASAMGKANHAIFLDCKDLSFEHVPLDLKGYRIVISNTKKKRSLGAVKYNERRSECEAGLEILKKAIPGISCLGEISAEQFEKNKHLITDEVVRKRVEHVIYEDDRVLKSVEALKKGDLHSFGRYMIESHNSLRDLYEVTGLELDTLVEEALKIDGVIGSRMTGAGFGGCTVSIVREDAVDRFIEDVGSAYTQKTGITAEFYVSEVGDGGREIK
notes: full length, N-terminal His6-TEV tag kept, E. coli Rosetta, HisTrap purified
For the protein B1, in “purified protein [1]”, the Michaelis-Menten constant (Km) turned out to be 3980 µM and the kcat is 1.07 ⋅ 10^3 U/umol of. In “purified protein [2]”, the Michaelis-Menten constant (Km) came to 35 µM and the kcat was 2.56 ⋅ 10^3 U/umol of.

What is called Km is the concentration of substrate that gives half-maximal velocity.
